Results as given in paper PMC7054286, “Functional Characterization of the Arabidopsis Abscisic Acid Transporters NPF4.5 and NPF4.6 in Xenopus Oocytes” (Frontiers in Plant Science, 2020).

Substrate: CC1=CC(=O)CC(C)(C)[C@@]1(O)/C=C/C(C)=C\C(=O)O
Assay: cells, lysate or membranes
Type: cell-based, Arabidopsis thaliana
Details: pH 6.0, ND96, 0-5 μM ABA, labelled compound (10% 3H-ABA, 90% cold), apparent Km

| Protein | Km |
| --- | --- |
| NPF4.6 (Arabidopsis thaliana) (protein, full CDS (pDONR207) in pGEM-GWC; cRNA-injected Xenopus oocytes; tag not given) MEVEEEVSRWEGYADWRNRAAVKGRHGGMLAASFVLVVEILENLAYLANASNLVLYLREYMHMSPSKSANDVTNFMGTAFLLALLGGFLSDAFFSTFQIFLISASIEFLGLIILTIQARTPSLMPPSCDSPTCEEVSGSKAAMLFVGLYLVALGVGGIKGSLASHGAEQFDESTPKGRKQRSTFFNYFVFCLACGALVAVTFVVWLEDNKGWEWGFGVSTIAIFVSILIFLSGSRFYRNKIPCGSPLTTILKVLLAASVKCCSSGSSSNAVASMSVSPSNHCVSKGKKEVESQGELEKPRQEEALPPRAQLTNSLKVLNGAADEKPVHRLLECTVQQVEDVKIVLKMLPIFACTIMLNCCLAQLSTFSVQQAASMNTKIGSLKIPPASLPIFPVVFIMILAPIYDHLIIPFARKATKTETGVTHLQRIGVGLVLSILAMAVAALVEIKRKGVAKDSGLLDSKETLPVTFLWIALQYLFLGSADLFTLAGLLEYFFTEAPSSMRSLATSLSWASLAMGYYLSSVIVSIVNSITGSSGNTPWLRGKSINRYKLDYFYWLMCVLSAANFLHYLFWAMRYKYRSTGSRS | 0.452 ± 0.025 µM |
| NPF4.5 (Arabidopsis thaliana) (protein, full CDS (ABRC, pENTR223) in pGEM-GWC; cRNA-injected Xenopus oocytes; tag not given) MEVEMHGDVSKWEGYADWRNKAALRGRHGGMLAASFVLAVEILENLAFLANASNLVLYLKNFMHMSLARSSSEVTTFMATAFLLALLGGFLADAFFSTFVIFLISASIEFLGLILLTIQARRPSLMPPPCKSSAALRCEVVGGSKAAFLFVGLYLVSLGIGGIKGSLPSHGAEQFDEGTPKGRKQRSTFFNYYVFCLSCGALVAVTFVVWIEDNKGWEWGFGVSTISIFLSILVFLLGSRFYKNKIPRGSPLTTIFKVLLAASIVSCSSKTSSNHFTSREVQSEHEEKTPSQSLTNSLTCLNKAIEGKTHHIWLECTVQQVEDVKIVLKMLPIFGCTIMLNCCLAQLSTYSVHQAATMNRKIVNFNVPSASLPVFPVVFMLILAPTYDHLIIPFARKVTKSEIGITHLQRIGVGLVLSIVAMAVAALVELKRKQVAREAGLLDSEETLPITFLWIALQYLFLGSADLFTLAGLLEFFFTEAPSSMRSLATSLSWASLALGYYLSSVMVPIVNRVTKSAGQSPWLGEKLNRNRLDLFYWLMCVLSVVNFLHYLFWAKRYKYISTGSIS | 0.522 ± 0.041 µM |
